Experiment [1] relates to human IgE (ragweed allergic patient sera). The experiment can be described thus: SDS-PAGE Western blot (and ELISA) of ragweed allergic patient IgE binding to pollen, affinity purified and recombinant Amb a I / Amb a II. Details: key to IgE binding, summarized Western blot data: −: no signal over background; +−: barely discernable over background; +: clearly positive; ++: strongly positive; +++: highly positive. Particulars: for Human IgE binding (in words): Western blot (FIG. 17) and/or ELISA, ragweed allergic patient IgE; for Extent of specific IgE binding relative to Amb a IB or Amb a II (in words): patient #295, FIG. 20. How it is done: As represented in FIG. 1A, a selected monoclonal antibody (designated 4B5/B7) which recognizes an Amb a I preparation unsubjected to denaturing conditions was used to affinity purify from pollen extract a single protein, which is referred to as affinity purified Amb a I. This was carried out, using known techniques, by producing the desired monoclonal antibody, isolating it in large quantities from ascites and immobilizing it on Sepharose (Pharmacia). Aqueous pollen extract was passed over the monoclonal antibody-containing column and a protein species was eluted.
Furthermore, full-length and truncated cDNAs encoding several members of the Amb a I multigene family, as well as Amb a II, were cloned in-frame into the expression vector pTrc99 (Amann et al. Gene, 69:301-315, (1988)) and transformed into the JM109 host. Expression of recombinant Amb a I and Amb a II protein was induced by 1 mM isopropyl-β-D-thiogalactopyranoside, cells were harvested, lysozyme treated, sonicated and insoluble inclusion bodies recovered by a low speed centrifugation. Recombinant Amb a I and Amb a II protein present in the recovered pellet was solubilized in buffer containing 8M urea, 50 mM Tris HC1 pH8.0, 50 mM NaCl, 1 mM EDTA, 1 mM dithiothreitol, 1 mM phenylmethylsulfonyl fluoride. After solubilization, the crude urea lysate was dialyzed at 4° C. against PBS. […] This antigenic cross-reactivity is consistent with the observed sequence homology of the cDNAs (see FIG. 16).
Comparison of human IgE binding to recombinant Amb a I and Amb a II proteins with anti-peptide and monoclonal anti-Amb a I antibodies have provided data consistent with the conclusion that the N-terminal portion (historically referred to as the β-region) of Amb a IA includes the major IgE eptiope(s).
Affinity purified Amb a I was electrophoresed, Western transferred (Towbin et al., Proc. Natl. Acad. Sci. USA, 76:4350 (1979)) and probed with a variety of antibodies, including IgE from an allergic patient (FIG. 17). In pollen extract Amb a I is not only present as an intact 38-KD species, but also characterized by its component 26KD alpha chains and 12-KD beta chains which are formed by enzymatic cleavage. The intact 38-KD species and the alpha chain are clearly detected using rabbit anti-Amb a I, polyclonal affinity purified anti-RAE 16 and monoclonal anti-Amb a I JBIE3-4 (FIG. 17); RAE 16 peptide has the sequence RTDKDLLENGAIC derived from amino-acids […] of Amb a IB, FIG. 16). Affinity purified Amb a I (partial sequence presented in Table 1) as well as chromatographically purified Amb a II (partial sequence presented in Table 2) are bound on Western blots by these antibodies as well as by patient IgE (FIG. 17). The goat anti-Amb a I polyclonal antibody also binds multiple Amb a I and Amb a II species on a two dimensional Western blot of pollen extract (FIG. 18). The Western blot was performed as outlined below. […]
In general terms: Immunoblotting shows a protein as a band on a membrane.

Experiment [2] concerns rabbit antisera directed against an Amb a II sequence (amino acid 326-338; RAE 50. K). In words: Western blot of recombinant proteins with monospecific anti-peptide antisera against RAE 50. K. The class given is binding. To be noted: Western blots, data not shown. The text has this:
Proteins or peptides encoded by the cDNA of the present invention can be used, for example, as “purified” allergens. Such purified allergens are useful in the standardization of allergen extracts which are key reagents for the diagnosis and treatment of ragweed allergy. Furthermore, by using peptides based on the sequences listed in FIGS. 2 through 16, anti-peptide antisera or monoclonal antibodies can be made using standard methods. Such reagents can be specifically directed against individual isoforms of Amb a I or Amb a II (i.e., directed against divergent regions/epitopes of the molecule) or can be specific for all forms Amb a I or Amb a II (i.e, directed against common sequences/epitopes). These sera or monoclonal antibodies, directed against Amb a I or Amb a II, can be used to standardize allergen extracts. One such monospecific anti-peptide antisera has already been successfully produced.

B1: affinity purified Amb a I: protein affinity purified from pollen extract with monoclonal antibody 4B5/B7 (protein)
chain: AEDLQEILPVNETRRLTTSGAYNIIDGCWRGKADWAENRKALADCAQGFGKGTVGGKDGDIYTVTSELDDDVANPKEGTLRFGAAQNRPLWIIFERDMVIRLDKEMVVNSDKTIDGRGAKVEIINAGFTLNGVKNVIIHNINMHDVKVNPGGLIKSNDGPAAPRAGSDGDAISISGSSQIWIDHCSLSKSVDGLVDAKLGTTRLTVSNSLFTQHQFVLLFGAGDENIEDRGMLATVAFNTFTDNVDQRMPRCRHGFFQVVNNNYDKWGSYAIGGSASPTILSQGNRFCAPDERSKKNVLGRHGEAAAESMKWNWRTNKDVLENGAIFVASGVDPVLTPEQSAGMIPAEPGESALSLTSSAGVLSCQPGAPC
B1: the “Human IgE binding (in words)” value in experiment [1] is “bind human IgE”; in experiment [1] (listed as 4B5/B7 affinity purified Amb a I), “readily detectable IgE reactivity”; in experiment [1] (listed as Affinity purified Amb a I) it was “bound”.

B2: Amb a IA: full-length recombinant Amb a IA, amino acid 10-398, E. coli expressed, used as crude bacterial lysate (protein)
chain: LYFTLALVTLLQPVRSAEDLQEILPVNETRRLTTSGAYNIIDGCWRGKADWAENRKALADCAQGFGKGTVGGKDGDIYTVTSELDDDVANPKEGTLRFGAAQNRPLWIIFERDMVIRLDKEMVVNSDKTIDGRGAKVEIINAGFTLNGVKNVIIHNINMHDVKVNPGGLIKSNDGPAAPRAGSDGDAISISGSSQIWIDHCSLSKSVDGLVDAKLGTTRLTVSNSLFTQHQFVLLFGAGDENIEDRGMLATVAFNTFTDNVDQRMPRCRHGFFQVVNNNYDKWGSYAIGGSASPTILSQGNRFCAPDERSKKNVLGRHGEAAAESMKWNWRTNKDVLENGAIFVASGVDPVLTPEQSAGMIPAEPGESALSLTSSAGVLSCQPGAPC
B2: the “Binding by rabbit anti-RAE 50. K antisera (in words)” value in experiment [2] is on record as “not”. Besides, the “IgE binding, summarized Western blot data” value is “+” in experiment [1] (patient 151); “+−” in experiment [1] (patient 222); “+++” in experiment [1] (patient 291); “+++” in experiment [1] (patient 295); “++” in experiment [1] (patient 296). In addition, the “Extent of specific IgE binding relative to Amb a IB or Amb a II (in words)” value in experiment [1] is listed as “far greater extent”.

B3: Amb a IB: E. coli expressed recombinant Amb a IB, used as crude bacterial lysate (protein)
chain: LYFTLALVTLLQPVRSAEDVEEFLPSANETRRSLKACEAHNIIDKCWRCKADWANNRQALADCAQGFAKGTYGGKHGDVYTVTSDKDDDVANPKEGTLRFAAAQNRPLWIIFKRNMVIHLNQELVVNSDKTIDGRGVKVNIVNAGLTLMNVKNIIIHNINIHDIKVCPGGMIKSNDGPPILRQQSDGDAINVAGSSQIWIDHCSLSKASDGLLDITLGSSHVTVSNCKFTQHQFVLLLGADDTHYQDKGMLATVAFNMFTDHVDQRMPRCRFGFFQVVNNNYDRWGTYAIGGSSAPTILSQGNRFFAPDDIIKKNVLARTGTGNAESMSWNWRTDRDLLENGAIFLPSGSDPVLTPEQKAGMIPAEPGEAVLRLTSSAGVLSCHQGAPC
With B3, the “Binding by rabbit anti-RAE 50. K antisera (in words)” value in experiment [2] is reported as “not”. Further, the “IgE binding, summarized Western blot data” value in experiment [1] (patient 151) is recorded as “−”; in experiment [1] (patient 222), “+−”; in experiment [1] (patient 291) it was “−”; in experiment [1] (patient 295) it was “+”.

B4: Amb a IC: E. coli expressed recombinant Amb a IC, used as crude bacterial lysate (protein)
chain: LYFTLALVALLQPVRSAEGVGEILPSVNETRSLQACEALNIIDKCWRGKADWENNRQALADCAQGFAKGTYGGKWGDVYTVTSNLDDDVANPKEGTLRFAAAQNRPLWIIFKNDMVINLNQELVVNSDKTIDGRGVKVEIINGGLTLMNVKNIIIHNINIHDVKVLPGGMIKSNDGPPILRQASDGDTINVAGSSQIWIDHCSLSKSFDGLVDVTLGSTHVTISNCKFTQQSKAILLGADDTHVQDKGMLATVAFNMFTDNVDQRMPRCRFGFFQVVNNNYDRWGTYAIGGSSAPTILCQGNRFLAPDDQIKKNVLARTGTGAAESMAWNWRSDKDLLENGAIFVTSGSDPVLTPVQSAGMIPAEPGEAAIKLTSSAGVFSCRPGAPC
For B4, the “Binding by rabbit anti-RAE 50. K antisera (in words)” value in experiment [2] is “not”. For the same molecule, the “IgE binding, summarized Western blot data” value in experiment [1] (patient 151) is reported as “+”; in experiment [1] (patient 222) it was “+−”; in experiment [1] (patient 291) it was “+++”; in experiment [1] (patient 295), “+++”; in experiment [1] (patient 296) it was “++”. Also, the “Extent of specific IgE binding relative to Amb a IB or Amb a II (in words)” value in experiment [1] is “far greater extent”.
